The values below are quoted from earlier work in paper PMC4689310.

The target in data set [1] is H3 K4un/K23ac peptide (Homo sapiens) (UniProt P68431).
In data set [2] the target is H3 unmodified K4 peptide (Homo sapiens) (UniProt P68431).
Data set [3] addresses H3K23ac peptide 13-32 (Homo sapiens) (UniProt P68431).
Data set [4] concerns the target H3 peptide 1-28 (Homo sapiens) (UniProt P68431).
The target of data set [5] is H3K9me3 peptide 1-28 (Homo sapiens) (UniProt P68431).
Data set [6] concerns the target H3K18ac peptide 1-28 (Homo sapiens) (UniProt P68431).
Data set [7] addresses H3 peptide 1-18 (Homo sapiens) (UniProt P68431).
Data set [8] concerns the target H4K20me1 peptide (Homo sapiens) (UniProt P62805).
Data set [9] has as its target H4K16ac peptide (Homo sapiens) (UniProt P62805). The data set can be described thus: ITC. In general terms: ITC needs no label: the signal is the heat of the interaction.

Chain of DPF3b tandem PHD fingers (Q92784 259-366): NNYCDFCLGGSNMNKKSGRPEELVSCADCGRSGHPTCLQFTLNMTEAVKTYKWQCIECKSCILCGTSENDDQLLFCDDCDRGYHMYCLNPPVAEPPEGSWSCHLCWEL

One may read the Kd as the equilibrium constant for the complex coming apart. On to TRIM24 PHD-Bromo (from UniProt O15164), for which the dissociation constant (Kd) in data set [1] was 96 nM; in [2] it was 2300 nM; in data set [3] it was 8.8 µM.
For the substance TRIM33 PHD-Bromo (from UniProt Q9UPN9), the dissociation constant Kd in data set [4] was 460 nM; in data set [5], 200 nM; in data set [6], 210 nM.
Regarding “DPF3b tandem PHD fingers (from UniProt Q92784)”, the equilibrium dissociation constant (Kd) in [7] was 2300 nM.
Turning to MSL3 chromodomain (from UniProt Q8N5Y2), in [8], the equilibrium dissociation constant (Kd) was 10 µM.
With “TAF1 double bromodomain (from UniProt P21675)”, the Kd in data set [9] was 39 µM.
